Experimental data published in patent US8785135B2, “Mutant G-protein coupled receptors and methods for selecting them” (Heptares Therapeutics Limited, priority 2007, dated 2014).

B1: R220A: A2aR point mutant (protein, UniProt P29274 1-412, looked up, variant R220A)
Adenosine receptor A2a: MPIMGSSVYITVELAIAVLAILGNVLVCWAVWLNSNLQNVTNYFVVSLAAADIAVGVLAIPFAITISTGFCAACHGCLFIACFVLVLTQSSIFSLLAIAIDRYIAIRIPLRYNGLVTGTRAKGIIAICWVLSFAIGLTPMLGWNNCGQPKEGKNHSQGCGEGQVACLFEDVVPMNYMVYFNFFACVLVPLLLMLGVYLRIFLAARRQLKQMESQPLPGEAARSTLQKEVHAAKSLAIIVGLFALCWLPLHIINCFTFFCPDCSHAPLWLMYLAIVLSHTNSVVNPFIYAYRIREFRQTFRKIIRSHVLRQQEPFKAAGTSARVLAAHGSDGEQVSLRLNGHPPGVWANGSAPHPERRPNGYALGLVSGGSAQESQGNTGLPDVELLSHELKGVCPEPPGLDDPLAQDGAGVS
B2: H230A: A2aR point mutant (protein, UniProt P29274 1-412, looked up, variant H230A)
Adenosine receptor A2a: MPIMGSSVYITVELAIAVLAILGNVLVCWAVWLNSNLQNVTNYFVVSLAAADIAVGVLAIPFAITISTGFCAACHGCLFIACFVLVLTQSSIFSLLAIAIDRYIAIRIPLRYNGLVTGTRAKGIIAICWVLSFAIGLTPMLGWNNCGQPKEGKNHSQGCGEGQVACLFEDVVPMNYMVYFNFFACVLVPLLLMLGVYLRIFLAARRQLKQMESQPLPGERARSTLQKEVAAAKSLAIIVGLFALCWLPLHIINCFTFFCPDCSHAPLWLMYLAIVLSHTNSVVNPFIYAYRIREFRQTFRKIIRSHVLRQQEPFKAAGTSARVLAAHGSDGEQVSLRLNGHPPGVWANGSAPHPERRPNGYALGLVSGGSAQESQGNTGLPDVELLSHELKGVCPEPPGLDDPLAQDGAGVS
B3: L241A: A2aR point mutant (protein, UniProt P29274 1-412, looked up, variant L241A)
Adenosine receptor A2a: MPIMGSSVYITVELAIAVLAILGNVLVCWAVWLNSNLQNVTNYFVVSLAAADIAVGVLAIPFAITISTGFCAACHGCLFIACFVLVLTQSSIFSLLAIAIDRYIAIRIPLRYNGLVTGTRAKGIIAICWVLSFAIGLTPMLGWNNCGQPKEGKNHSQGCGEGQVACLFEDVVPMNYMVYFNFFACVLVPLLLMLGVYLRIFLAARRQLKQMESQPLPGERARSTLQKEVHAAKSLAIIVGAFALCWLPLHIINCFTFFCPDCSHAPLWLMYLAIVLSHTNSVVNPFIYAYRIREFRQTFRKIIRSHVLRQQEPFKAAGTSARVLAAHGSDGEQVSLRLNGHPPGVWANGSAPHPERRPNGYALGLVSGGSAQESQGNTGLPDVELLSHELKGVCPEPPGLDDPLAQDGAGVS
B4: K227A: A2aR point mutant (protein, UniProt P29274 1-412, looked up, variant K227A)
Adenosine receptor A2a: MPIMGSSVYITVELAIAVLAILGNVLVCWAVWLNSNLQNVTNYFVVSLAAADIAVGVLAIPFAITISTGFCAACHGCLFIACFVLVLTQSSIFSLLAIAIDRYIAIRIPLRYNGLVTGTRAKGIIAICWVLSFAIGLTPMLGWNNCGQPKEGKNHSQGCGEGQVACLFEDVVPMNYMVYFNFFACVLVPLLLMLGVYLRIFLAARRQLKQMESQPLPGERARSTLQAEVHAAKSLAIIVGLFALCWLPLHIINCFTFFCPDCSHAPLWLMYLAIVLSHTNSVVNPFIYAYRIREFRQTFRKIIRSHVLRQQEPFKAAGTSARVLAAHGSDGEQVSLRLNGHPPGVWANGSAPHPERRPNGYALGLVSGGSAQESQGNTGLPDVELLSHELKGVCPEPPGLDDPLAQDGAGVS
B5: P260A: A2aR point mutant (protein, UniProt P29274 1-412, looked up, variant P260A)
Adenosine receptor A2a: MPIMGSSVYITVELAIAVLAILGNVLVCWAVWLNSNLQNVTNYFVVSLAAADIAVGVLAIPFAITISTGFCAACHGCLFIACFVLVLTQSSIFSLLAIAIDRYIAIRIPLRYNGLVTGTRAKGIIAICWVLSFAIGLTPMLGWNNCGQPKEGKNHSQGCGEGQVACLFEDVVPMNYMVYFNFFACVLVPLLLMLGVYLRIFLAARRQLKQMESQPLPGERARSTLQKEVHAAKSLAIIVGLFALCWLPLHIINCFTFFCADCSHAPLWLMYLAIVLSHTNSVVNPFIYAYRIREFRQTFRKIIRSHVLRQQEPFKAAGTSARVLAAHGSDGEQVSLRLNGHPPGVWANGSAPHPERRPNGYALGLVSGGSAQESQGNTGLPDVELLSHELKGVCPEPPGLDDPLAQDGAGVS
B6: S223A: A2aR point mutant (protein, UniProt P29274 1-412, looked up, variant S223A)
Adenosine receptor A2a: MPIMGSSVYITVELAIAVLAILGNVLVCWAVWLNSNLQNVTNYFVVSLAAADIAVGVLAIPFAITISTGFCAACHGCLFIACFVLVLTQSSIFSLLAIAIDRYIAIRIPLRYNGLVTGTRAKGIIAICWVLSFAIGLTPMLGWNNCGQPKEGKNHSQGCGEGQVACLFEDVVPMNYMVYFNFFACVLVPLLLMLGVYLRIFLAARRQLKQMESQPLPGERARATLQKEVHAAKSLAIIVGLFALCWLPLHIINCFTFFCPDCSHAPLWLMYLAIVLSHTNSVVNPFIYAYRIREFRQTFRKIIRSHVLRQQEPFKAAGTSARVLAAHGSDGEQVSLRLNGHPPGVWANGSAPHPERRPNGYALGLVSGGSAQESQGNTGLPDVELLSHELKGVCPEPPGLDDPLAQDGAGVS
B7: T224A: A2aR point mutant (protein, UniProt P29274 1-412, looked up, variant T224A)
Adenosine receptor A2a: MPIMGSSVYITVELAIAVLAILGNVLVCWAVWLNSNLQNVTNYFVVSLAAADIAVGVLAIPFAITISTGFCAACHGCLFIACFVLVLTQSSIFSLLAIAIDRYIAIRIPLRYNGLVTGTRAKGIIAICWVLSFAIGLTPMLGWNNCGQPKEGKNHSQGCGEGQVACLFEDVVPMNYMVYFNFFACVLVPLLLMLGVYLRIFLAARRQLKQMESQPLPGERARSALQKEVHAAKSLAIIVGLFALCWLPLHIINCFTFFCPDCSHAPLWLMYLAIVLSHTNSVVNPFIYAYRIREFRQTFRKIIRSHVLRQQEPFKAAGTSARVLAAHGSDGEQVSLRLNGHPPGVWANGSAPHPERRPNGYALGLVSGGSAQESQGNTGLPDVELLSHELKGVCPEPPGLDDPLAQDGAGVS
B8: Q226A: A2aR point mutant (protein, UniProt P29274 1-412, looked up, variant Q226A)
Adenosine receptor A2a: MPIMGSSVYITVELAIAVLAILGNVLVCWAVWLNSNLQNVTNYFVVSLAAADIAVGVLAIPFAITISTGFCAACHGCLFIACFVLVLTQSSIFSLLAIAIDRYIAIRIPLRYNGLVTGTRAKGIIAICWVLSFAIGLTPMLGWNNCGQPKEGKNHSQGCGEGQVACLFEDVVPMNYMVYFNFFACVLVPLLLMLGVYLRIFLAARRQLKQMESQPLPGERARSTLAKEVHAAKSLAIIVGLFALCWLPLHIINCFTFFCPDCSHAPLWLMYLAIVLSHTNSVVNPFIYAYRIREFRQTFRKIIRSHVLRQQEPFKAAGTSARVLAAHGSDGEQVSLRLNGHPPGVWANGSAPHPERRPNGYALGLVSGGSAQESQGNTGLPDVELLSHELKGVCPEPPGLDDPLAQDGAGVS
B9: S263A: A2aR point mutant (protein, UniProt P29274 1-412, looked up, variant S263A)
Adenosine receptor A2a: MPIMGSSVYITVELAIAVLAILGNVLVCWAVWLNSNLQNVTNYFVVSLAAADIAVGVLAIPFAITISTGFCAACHGCLFIACFVLVLTQSSIFSLLAIAIDRYIAIRIPLRYNGLVTGTRAKGIIAICWVLSFAIGLTPMLGWNNCGQPKEGKNHSQGCGEGQVACLFEDVVPMNYMVYFNFFACVLVPLLLMLGVYLRIFLAARRQLKQMESQPLPGERARSTLQKEVHAAKSLAIIVGLFALCWLPLHIINCFTFFCPDCAHAPLWLMYLAIVLSHTNSVVNPFIYAYRIREFRQTFRKIIRSHVLRQQEPFKAAGTSARVLAAHGSDGEQVSLRLNGHPPGVWANGSAPHPERRPNGYALGLVSGGSAQESQGNTGLPDVELLSHELKGVCPEPPGLDDPLAQDGAGVS

Test: Thermostability of A2aR and mutants (ligand binding after or during heating)
Type: physicochemical
Conditions: Ligand(−) format, binding after the heating step
Description: FIG. 12 Flow chart showing the two different assay formats of ligand (+) and ligand (−) used to determine receptor thermostability.
• 1. 315 site-directed mutants made between residues 2-316 of A2aR. • 2. All of these mutants have been assayed for thermostability using an assay measuring agonist and antagonist binding after the heating step (Ligand(−) format as described in FIG. 12). • a. […] Mutations have been combined to generate mutants in a putative antagonist conformation. Wildtype A2aR has a Tm of 31° C. with ZM241385 bound. • a. Rant17 A54L+K122A+L235A Tm 48° C. (ZM241385 bound) • b. Rant19 A54L, T88A, V239A+A204L Tm 47° C. (ZM241385 bound) • c. Rant21 A54L, T88A, V239A+K122A Tm 49° C. (ZM241385 bound) • 4. Mutations from the agonist screen have been combined, but have led to only a very low level of improvement in Tm of +2° C.

Thermostability measured with 3H-NECA (agonist), improved thermostability:
B1
B2
B3
B4
B5
B6
B7
B8
B9
